From paper PMC7282976

Key:
[1] = conditioned-media western and immunocytochemistry; settings: glycan lost; control: same mutant without Tun
[2] = anti-Hag western densitometry of cell lysates; settings: glycan lost; control: native V3, Dox, no Tun
[3] = anti-Hag immunocytochemistry, extracellular V3 staining; settings: glycan lost; control: native V3, Dox, no Tun

| Substance | expression_or_secretion [1] | expression_or_secretion, fold_change [2] | localisation_or_trafficking [3] |
| --- | --- | --- | --- |
| versican isoform V3 (rat V3): N57Q + tunicamycin | abolishes |  |  |
| versican isoform V3 (rat V3): N330Q + tunicamycin | abolishes |  |  |
| versican isoform V3 (rat V3): tunicamycin |  | decreases | no change |
